In the supplement of paper PMC10126150:
± gives the standard deviation of the averaged measurements.

System: ATP
Assay: switch fluorescence ratio, 500 uM ATP over buffer (Cy3 cluster intensity, sum of 5 cycles each) (fold (ratio)); higher = stronger signal-on switching upon ATP binding; sequences stand for … in TCGTCGGCAGCGTCAGATGTGTATAAGAGACAGTTTTTTTTTTTTTTTTTTTTTTTTT…TC
Settings: aptamer strand: ATP DNA aptamer (quencher-CACCTGGGGGAGTATTGCGGAGGAAGG + anchor), 100 nM annealed; ATP concentration: 500 uM
Outline: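 Clusters carrying Cy3-labelled switching strands on a modified Illumina MiSeq flow-cell were annealed to 100 nM quencher-labelled ATP aptamer and imaged in selection buffer. They were imaged again after 15 min with 500 uM ATP at 22 °C, over five buffer/ATP cycles with NaOH stripping and re-annealing in between. For each cluster, the fluorescence ratio is the summed Cy3 intensity of the target cycles divided by that of the buffer cycles, averaged per switch-domain sequence. Clusters outside 100-1000 RFU were left out.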
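Further: ATP exposure 15 min at 22 °C before imaging.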

TTATTTAGGC
switch fluorescence ratio: 1.12 ± 0.055

TTATTTCGCG
switch fluorescence ratio: 0.986 ± 0.041

TTATTTCGGG
switch fluorescence ratio: 0.973 ± 0.013

TTATTTGCAT
switch fluorescence ratio: 0.994 ± 0.013

TTATTTGGGT
switch fluorescence ratio: 1 ± 0.021

TTATTTGTAC
switch fluorescence ratio: 1.052 ± 0.0021

TTATTTGTCA
switch fluorescence ratio: 0.989 ± 0.013

TTATTTTAGT
switch fluorescence ratio: 1 ± 0.017

TTATTTTCGG
switch fluorescence ratio: 0.994 ± 0.019

TTATTTTTTT
switch fluorescence ratio: 1 ± 0.033

TTCAAAGATG
switch fluorescence ratio: 0.9743 ± 0.0021

TTCAAGGCGG
switch fluorescence ratio: 1.01 ± 0.014

TTCAAGGGCA
switch fluorescence ratio: 1.01 ± 0.027

TTCAAGGGTG
switch fluorescence ratio: 1.11 ± 0.024

TTCAAGTTTT
switch fluorescence ratio: 1.02 ± 0.063

TTCAATCCCG
switch fluorescence ratio: 0.991 ± 0.069

TTCAATGTCG
switch fluorescence ratio: 1.05 ± 0.024

TTCAATTCCG
switch fluorescence ratio: 1.03 ± 0.092

TTCAATTGGA
switch fluorescence ratio: 1 ± 0.042

TTCACCACTT
switch fluorescence ratio: 1.01 ± 0.025

TTCACCCGGT
switch fluorescence ratio: 1.11 ± 0.12

TTCACCCTTT
switch fluorescence ratio: 1.02 ± 0.049

TTCACGGCCT
switch fluorescence ratio: 1.03 ± 0.018

TTCACGGTTG
switch fluorescence ratio: 1.04 ± 0.061

TTCACGTTTT
switch fluorescence ratio: 1.03 ± 0.087

TTCAGAAAGA
switch fluorescence ratio: 0.998 ± 0.023

TTCAGACTAT
switch fluorescence ratio: 1.01 ± 0.027

TTCAGAGCTT
switch fluorescence ratio: 1 ± 0.035

TTCAGAGGAT
switch fluorescence ratio: 1.02 ± 0.048

TTCAGAGTTT
switch fluorescence ratio: 0.978 ± 0.014

TTCAGCGGGA
switch fluorescence ratio: 0.992 ± 0.019

TTCAGGAGGA
switch fluorescence ratio: 1.03 ± 0.011

TTCAGGGATG
switch fluorescence ratio: 0.9822 ± 0.0028

TTCAGGTCGT
switch fluorescence ratio: 0.992 ± 0.052

TTCAGGTTAG
switch fluorescence ratio: 1.01 ± 0.027

TTCAGGTTGG
switch fluorescence ratio: 1.08 ± 0.082

TTCAGTAGAG
switch fluorescence ratio: 1.03 ± 0.024

TTCAGTGATT
switch fluorescence ratio: 1 ± 0.022

TTCAGTGTGG
switch fluorescence ratio: 0.971 ± 0.022

TTCAGTTCGG
switch fluorescence ratio: 0.9942 ± 0.0016

TTCAGTTGCA
switch fluorescence ratio: 1.01 ± 0.024

TTCAGTTTGG
switch fluorescence ratio: 1.01 ± 0.038

TTCATACGGG
switch fluorescence ratio: 1.03 ± 0.04

TTCATAGTTC
switch fluorescence ratio: 0.986 ± 0.013

TTCATATTTT
switch fluorescence ratio: 0.996 ± 0.015

TTCATCGACT
switch fluorescence ratio: 0.996 ± 0.047

TTCATCTCGC
switch fluorescence ratio: 1.1 ± 0.1

TTCATGGTTT
switch fluorescence ratio: 1.01 ± 0.028

TTCATGTTGG
switch fluorescence ratio: 0.998 ± 0.019

TTCATTAGCT
switch fluorescence ratio: 1 ± 0.025

TTCATTTATT
switch fluorescence ratio: 0.9904 ± 0.0055

TTCATTTGAG
switch fluorescence ratio: 0.995 ± 0.021

TTCATTTTGC
switch fluorescence ratio: 1.02 ± 0.015

TTCCAAAATG
switch fluorescence ratio: 1.005 ± 0.0081

TTCCAAATCC
switch fluorescence ratio: 1.01 ± 0.056

TTCCACATCC
switch fluorescence ratio: 1.07 ± 0.044

TTCCACGCGG
switch fluorescence ratio: 1.268 ± 0.0091

TTCCAGATTT
switch fluorescence ratio: 1.02 ± 0.062

TTCCAGGTTC
switch fluorescence ratio: 1.04 ± 0.012

TTCCAGTTTT
switch fluorescence ratio: 1 ± 0.04

TTCCATCCAT
switch fluorescence ratio: 1.0067 ± 0.00069

TTCCATCGCC
switch fluorescence ratio: 1.53 ± 0.14

TTCCATCGGG
switch fluorescence ratio: 0.993 ± 0.033

TTCCATGCGG
switch fluorescence ratio: 1.02 ± 0.037

TTCCATTAGT
switch fluorescence ratio: 1.01 ± 0.035

TTCCCAGTGT
switch fluorescence ratio: 1.87 ± 0.053

TTCCCATTTA
switch fluorescence ratio: 1.04 ± 0.02

TTCCCGTTGA
switch fluorescence ratio: 1.14 ± 0.027

TTCCCTAAGG
switch fluorescence ratio: 2.35 ± 1.7

TTCCGGAAGT
switch fluorescence ratio: 1.04 ± 0.04

TTCCGGATGG
switch fluorescence ratio: 1.01 ± 0.021

TTCCGGGACG
switch fluorescence ratio: 1.027 ± 0.0033

TTCCGGGTAT
switch fluorescence ratio: 1.07 ± 0.03

TTCCGGGTGT
switch fluorescence ratio: 1.66 ± 0.75

TTCCGTCTTC
switch fluorescence ratio: 1.09 ± 0.11

TTCCTAAAAG
switch fluorescence ratio: 0.979 ± 0.011

TTCCTAATT
switch fluorescence ratio: 1.03 ± 0.033

TTCCTGCTTG
switch fluorescence ratio: 1.36 ± 0.6

TTCCTGGGGA
switch fluorescence ratio: 0.9943 ± 0.0077

TTCCTGGGTT
switch fluorescence ratio: 1.002 ± 0.0097

TTCCTGGTCA
switch fluorescence ratio: 0.997 ± 0.012

TTCCTTCTTT
switch fluorescence ratio: 1.08 ± 0.061

TTCGAAGATT
switch fluorescence ratio: 1 ± 0.051

TTCGAAGGCT
switch fluorescence ratio: 0.995 ± 0.017

TTCGAATATT
switch fluorescence ratio: 1.13 ± 0.26

TTCGACGAGG
switch fluorescence ratio: 0.996 ± 0.022

TTCGAGTGCC
switch fluorescence ratio: 0.991 ± 0.013

TTCGATGCGG
switch fluorescence ratio: 1.02 ± 0.036

TTCGATGGAA
switch fluorescence ratio: 1.06 ± 0.0038

TTCGATGGTG
switch fluorescence ratio: 0.987 ± 0.0044

TTCGATTCGA
switch fluorescence ratio: 0.961 ± 0.011

TTCGATTGTG
switch fluorescence ratio: 0.9867 ± 0.0088

TTCGATTTTT
switch fluorescence ratio: 0.981 ± 0.048

TTCGCAACGG
switch fluorescence ratio: 1.22 ± 0.34

TTCGCCGGTT
switch fluorescence ratio: 1.02 ± 0.0021

TTCGCGTAGA
switch fluorescence ratio: 1.01 ± 0.014

TTCGGAACGG
switch fluorescence ratio: 0.991 ± 0.027

TTCGGACCCG
switch fluorescence ratio: 0.976 ± 0.01

TTCGGACCTT
switch fluorescence ratio: 1.21 ± 0.021

TTCGGAGTCA
switch fluorescence ratio: 1.1 ± 0.019

TTCGGATAGT
switch fluorescence ratio: 0.98 ± 0.011

TTCGGCGGGC
switch fluorescence ratio: 1 ± 0.027

TTCGGCGTTG
switch fluorescence ratio: 0.972 ± 0.02

TTCGGCTTGA
switch fluorescence ratio: 0.994 ± 0.028

TTCGGGAATA
switch fluorescence ratio: 1.03 ± 0.022

TTCGGGAGAA
switch fluorescence ratio: 1.01 ± 0.052

TTCGGGAGGG
switch fluorescence ratio: 0.973 ± 0.029

TTCGGGCATT
switch fluorescence ratio: 0.989 ± 0.046

TTCGGGGCGG
switch fluorescence ratio: 0.934 ± 0.071

TTCGGGGGGT
switch fluorescence ratio: 1.02 ± 0.051

TTCGGGGGTA
switch fluorescence ratio: 0.97 ± 0.023

TTCGGGTAAT
switch fluorescence ratio: 1.08 ± 0.11

TTCGGGTCGC
switch fluorescence ratio: 0.963 ± 0.049

TTCGGGTGGA
switch fluorescence ratio: 1.02 ± 0.046

TTCGGGTTAT
switch fluorescence ratio: 1.01 ± 0.049

TTCGGGTTTC
switch fluorescence ratio: 1.04 ± 0.058

TTCGGTAAAT
switch fluorescence ratio: 1.03 ± 0.033

TTCGGTATAG
switch fluorescence ratio: 1 ± 0.025

TTCGGTGACC
switch fluorescence ratio: 1.02 ± 0.014

TTCGTAATCG
switch fluorescence ratio: 1.07 ± 0.093

TTCGTACAT
switch fluorescence ratio: 1.13 ± 0.22

TTCGTACGTC
switch fluorescence ratio: 1.01 ± 0.029

TTCGTATTTC
switch fluorescence ratio: 1.06 ± 0.083

TTCGTCATTT
switch fluorescence ratio: 0.983 ± 0.034

TTCGTGACCC
switch fluorescence ratio: 1.019 ± 0.0043

TTCGTGCGAT
switch fluorescence ratio: 1.04 ± 0.013

TTCGTGCGGC
switch fluorescence ratio: 1.06 ± 0.042

TTCGTGTCCC
switch fluorescence ratio: 0.994 ± 0.019

TTCGTGTGGT
switch fluorescence ratio: 1 ± 0.019

TTCGTGTTTT
switch fluorescence ratio: 1.04 ± 0.059

TTCGTTAGAG
switch fluorescence ratio: 0.9796 ± 0.0014

TTCGTTGGAC
switch fluorescence ratio: 1.01 ± 0.012

TTCGTTGGGT
switch fluorescence ratio: 0.986 ± 0.016

TTCGTTTTGC
switch fluorescence ratio: 0.999 ± 0.035

TTCTAACCCC
switch fluorescence ratio: 1.12 ± 0.012

TTCTACCAGC
switch fluorescence ratio: 1.01 ± 0.011

TTCTAGGGCA
switch fluorescence ratio: 1.02 ± 0.038

TTCTAGTGGG
switch fluorescence ratio: 1 ± 0.033

TTCTATACAT
switch fluorescence ratio: 1.04 ± 0.054

TTCTATCGTT
switch fluorescence ratio: 1.01 ± 0.031

TTCTATGTTA
switch fluorescence ratio: 0.997 ± 0.014

TTCTATTTTT
switch fluorescence ratio: 1.03 ± 0.024

TTCTCCTTTT
switch fluorescence ratio: 1.01 ± 0.021

TTCTCGCCAA
switch fluorescence ratio: 1.08 ± 0.022

TTCTCGGCTA
switch fluorescence ratio: 1.56 ± 0.61

TTCTCGGGGA
switch fluorescence ratio: 0.9908 ± 0.0097

TTCTCGGGGG
switch fluorescence ratio: 1.04 ± 0.043

TTCTCGTCTT
switch fluorescence ratio: 1.04 ± 0.036

TTCTCTAGGG
switch fluorescence ratio: 0.99 ± 0.0049

TTCTGAAAAC
switch fluorescence ratio: 1.0127 ± 0.00023

TTCTGAGGTG
switch fluorescence ratio: 1.074 ± 0.0026

TTCTGAGTCT
switch fluorescence ratio: 1.02 ± 0.041

TTCTGATGGA
switch fluorescence ratio: 0.978 ± 0.036

TTCTGGATTA
switch fluorescence ratio: 0.994 ± 0.036

TTCTGGCTTT
switch fluorescence ratio: 1.16 ± 0.25

TTCTGGGGGT
switch fluorescence ratio: 0.999 ± 0.051

TTCTGGGTTT
switch fluorescence ratio: 1.01 ± 0.025

TTCTGGTGCA
switch fluorescence ratio: 1.02 ± 0.047

TTCTGTGGGG
switch fluorescence ratio: 1.01 ± 0.017

TTCTGTTTCC
switch fluorescence ratio: 1.12 ± 0.13

TTCTTAAAAG
switch fluorescence ratio: 1.02 ± 0.028

TTCTTAATGC
switch fluorescence ratio: 0.985 ± 0.024

TTCTTAGTGT
switch fluorescence ratio: 0.97 ± 0.027

TTCTTCGTTA
switch fluorescence ratio: 1.03 ± 0.019

TTCTTGGGTT
switch fluorescence ratio: 0.989 ± 0.031

TTCTTGTTTT
switch fluorescence ratio: 1.01 ± 0.016

TTCTTTAAAC
switch fluorescence ratio: 0.992 ± 0.033

TTCTTTAGAA
switch fluorescence ratio: 1.03 ± 0.046

TTCTTTATCG
switch fluorescence ratio: 1.02 ± 0.073

TTCTTTCGTC
switch fluorescence ratio: 0.979 ± 0.021

TTCTTTGGGA
switch fluorescence ratio: 1.02 ± 0.028

TTCTTTTAGG
switch fluorescence ratio: 0.996 ± 0.03

TTCTTTTATC
switch fluorescence ratio: 0.983 ± 0.03

TTCTTTTGGG
switch fluorescence ratio: 0.987 ± 0.039

TTGAAAGTAT
switch fluorescence ratio: 1.03 ± 0.048

TTGAAAGTGA
switch fluorescence ratio: 1.13 ± 0.25

TTGAAAGTTT
switch fluorescence ratio: 1.01 ± 0.026

TTGAAATCGA
switch fluorescence ratio: 1.01 ± 0.03

TTGAAATTTG
switch fluorescence ratio: 1 ± 0.011

TTGAACCTTT
switch fluorescence ratio: 1.02 ± 0.012

TTGAAGTCGT
switch fluorescence ratio: 0.988 ± 0.02

TTGAAGTGGG
switch fluorescence ratio: 1.03 ± 0.014

TTGAATAAAA
switch fluorescence ratio: 1.005 ± 0.0096

TTGAATACAC
switch fluorescence ratio: 1.11 ± 0.17

TTGAATAGTT
switch fluorescence ratio: 0.998 ± 0.017

TTGAATATGG
switch fluorescence ratio: 1.01 ± 0.021

TTGAATCGAC
switch fluorescence ratio: 1.08 ± 0.042

TTGACCTGTG
switch fluorescence ratio: 1.02 ± 0.013

TTGACGAATC
switch fluorescence ratio: 1.067 ± 0.002

TTGACTAT
switch fluorescence ratio: 1.005 ± 0.0027

TTGACTTTGA
switch fluorescence ratio: 1.02 ± 0.016

TTGAGAGGGG
switch fluorescence ratio: 0.981 ± 0.021

TTGAGAGGGT
switch fluorescence ratio: 0.9859 ± 0.0089

TTGAGCCTGT
switch fluorescence ratio: 0.977 ± 0.028

TTGAGCTTAT
switch fluorescence ratio: 0.993 ± 0.018

TTGAGGACGG
switch fluorescence ratio: 1.03 ± 0.016

TTGAGGCAGT
switch fluorescence ratio: 1.54 ± 0.55

TTGAGGCCGG
switch fluorescence ratio: 1.038 ± 0.0038

TTGAGGCGGG
switch fluorescence ratio: 0.993 ± 0.045

TTGAGGGAGG
switch fluorescence ratio: 1 ± 0.034
